Measured values reported in article PMC2685004, “Recruitment of a SAP18-HDAC1 Complex into HIV-1 Virions and Its Requirement for Viral Replication” (PLoS Pathogens, 2009).

Key:
[1] = target: T1, 6H(hexa-histidine)-INI1/hSNF5 (human, UniProt Q12824 1-385); assay: pull-down; glutathione sepharose beads with GST-SAP18 incubated with purified IN and INI1 together; Western blot; conditions: both partners purified
T1 construct: also called His-INI1; source: Ni-NTA and hydroxylapatite purified

[2] = target: T1, 6H(hexa-histidine)-INI1/hSNF5; assay: pull-down; glutathione sepharose 4B beads with 5 µg GST or GST-SAP18, incubated with 2 µg His-IN or His-INI1, one at a time; 20 mM HEPES-KOH pH 6.8, 200 mM NaCl, 0.1 mM EDTA, 2-5 mM DTT, 0.1% IGEPAL, 100 µg/ml ethidium bromide, 10 U DNaseI; Western blot; conditions: both partners purified

T1 sequence (Q12824 whole entry): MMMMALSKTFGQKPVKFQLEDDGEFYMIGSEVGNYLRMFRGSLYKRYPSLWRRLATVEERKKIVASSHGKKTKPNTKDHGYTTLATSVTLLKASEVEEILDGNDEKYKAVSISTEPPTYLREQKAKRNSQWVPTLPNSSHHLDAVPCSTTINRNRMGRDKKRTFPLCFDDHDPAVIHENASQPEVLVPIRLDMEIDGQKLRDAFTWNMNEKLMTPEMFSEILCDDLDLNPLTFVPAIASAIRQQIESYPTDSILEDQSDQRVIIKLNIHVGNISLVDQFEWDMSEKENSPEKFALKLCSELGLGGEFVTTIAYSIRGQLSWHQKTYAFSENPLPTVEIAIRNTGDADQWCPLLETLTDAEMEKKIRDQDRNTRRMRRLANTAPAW

B1: GST-SAP18 (natural protein, UniProt O00422 1-153, looked up)
chain: MAVESRVTQEEIKKEPEKPIDREKTCPLLLRVFTTNNGRHHRMDEFSRGNVPSSELQIYTWMDATLKELTSLVKEVYPEARKKGTHFNFAIVFTDVKRPGYRVKEIGSTMSGRKGTDDSMTLQSQKFQIGDYLDIAITPPNRAPPPSGRMRPY
notes: also called GST (glutathione-S-transferase)-SAP18; pGEX-SAP18
Does B1 bind [1]?
Result: binds

Does B1 bind [2]?
Result: binds
